Laboratory results reported in patent publication US20120178694A1 (University of Pennsylvania, published 2012).
Bridge positions count the residues as written; N and C are the ends. Square brackets hold non-standard residues; d marks the D form. Trp(1-Me) = Cn1cc(C[C@H](N)C(=O)O)c2ccccc21; NMeW = CN[C@@H](Cc1c[nH]c2ccccc12)C(=O)O; NMeH = CN[C@@H](Cc1c[nH]cn1)C(=O)O; NMeR = CN[C@@H](CCCNC(=N)N)C(=O)O; NMeQ = CN[C@@H](CCC(N)=O)C(=O)O; NMeD = CN[C@@H](CC(=O)O)C(=O)O; NMeC = CN[C@@H](CS)C(=O)O; Sar = CNCC(=O)O

Assays:
[1] = biological target: T1, C3 purified from fresh human plasma (human, UniProt P01024 23-1663); experiment: cell-based or functional assay
T1 sequence (P01024 23-1663): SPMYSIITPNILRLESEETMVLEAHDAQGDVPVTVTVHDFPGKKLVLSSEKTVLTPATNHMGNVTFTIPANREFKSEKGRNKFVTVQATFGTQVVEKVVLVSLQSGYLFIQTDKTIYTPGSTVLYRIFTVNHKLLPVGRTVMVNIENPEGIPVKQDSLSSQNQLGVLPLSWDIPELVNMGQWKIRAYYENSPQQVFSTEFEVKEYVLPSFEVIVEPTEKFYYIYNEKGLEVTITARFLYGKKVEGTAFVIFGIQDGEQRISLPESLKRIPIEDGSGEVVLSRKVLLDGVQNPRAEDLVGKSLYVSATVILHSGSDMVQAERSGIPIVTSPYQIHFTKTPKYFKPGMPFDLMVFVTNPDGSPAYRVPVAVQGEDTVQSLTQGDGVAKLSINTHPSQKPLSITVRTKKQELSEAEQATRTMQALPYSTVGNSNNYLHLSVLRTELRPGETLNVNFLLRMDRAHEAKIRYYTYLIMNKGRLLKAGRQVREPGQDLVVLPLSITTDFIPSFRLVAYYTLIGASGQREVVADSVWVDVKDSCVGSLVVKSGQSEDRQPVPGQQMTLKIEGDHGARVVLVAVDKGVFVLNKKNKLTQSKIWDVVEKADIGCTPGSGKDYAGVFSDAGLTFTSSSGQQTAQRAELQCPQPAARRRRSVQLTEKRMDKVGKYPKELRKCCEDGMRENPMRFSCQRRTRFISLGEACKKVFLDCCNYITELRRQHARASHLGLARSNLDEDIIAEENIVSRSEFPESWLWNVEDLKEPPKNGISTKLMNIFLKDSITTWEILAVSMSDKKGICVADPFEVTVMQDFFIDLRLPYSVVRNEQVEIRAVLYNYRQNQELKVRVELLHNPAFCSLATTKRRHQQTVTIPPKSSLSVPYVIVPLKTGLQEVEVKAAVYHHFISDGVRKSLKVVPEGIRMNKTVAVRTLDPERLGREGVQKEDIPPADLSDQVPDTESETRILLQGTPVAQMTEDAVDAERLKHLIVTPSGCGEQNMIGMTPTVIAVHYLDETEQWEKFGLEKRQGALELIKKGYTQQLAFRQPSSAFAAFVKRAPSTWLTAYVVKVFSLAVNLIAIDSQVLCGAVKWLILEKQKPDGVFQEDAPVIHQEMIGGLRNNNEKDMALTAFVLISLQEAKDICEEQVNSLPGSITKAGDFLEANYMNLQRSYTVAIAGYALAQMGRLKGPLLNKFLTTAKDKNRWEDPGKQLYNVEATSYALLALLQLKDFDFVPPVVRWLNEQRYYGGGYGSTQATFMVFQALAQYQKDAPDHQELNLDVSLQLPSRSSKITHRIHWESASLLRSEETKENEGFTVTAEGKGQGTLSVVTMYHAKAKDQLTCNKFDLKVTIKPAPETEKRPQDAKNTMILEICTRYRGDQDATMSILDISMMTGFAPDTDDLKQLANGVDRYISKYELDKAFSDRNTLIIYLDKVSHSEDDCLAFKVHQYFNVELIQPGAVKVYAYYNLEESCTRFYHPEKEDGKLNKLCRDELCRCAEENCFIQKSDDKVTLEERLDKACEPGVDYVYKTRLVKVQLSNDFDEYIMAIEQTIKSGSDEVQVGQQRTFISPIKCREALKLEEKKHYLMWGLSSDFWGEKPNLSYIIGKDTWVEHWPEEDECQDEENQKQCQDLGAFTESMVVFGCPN

[2] = biological target: T1, C3 purified from fresh human plasma; experiment: cell-based or functional assay; remark: listed apart in the source
[3] = biological target: T1, C3 purified from fresh human plasma; experiment: cell-based or functional assay; remark: listed apart in the source
[4] = biological target: T1, C3 purified from fresh human plasma; experiment: ITC with C3; relative to peptide 14
Procedure: (§1) ITC analysis. All ITC experiments were performed with the Microcal VP-ITC calorimeter (Microcal Inc., Northampton, Mass.), using protein concentrations of 1.8-5 μM C3 in the cell and peptide concentrations of 40-100 μM of individual compstatin analogs in the syringe. All titrations were performed in PBS (10 mM phosphate buffer with 150 mM NaCl, pH 7.4) at 25° C. using multiple peptide injections of 2-7 μL each. The raw isotherms were corrected for the heats of dilution by subtracting the isotherms representing peptide injections into the buffer. The resulting isotherms were fitted to a single site of sites models using Origin 7.0 software, and the model that produced the lowest χ² value was deemed to be appropriate for the respective data set. The Gibbs free energy was calculated as ΔG=ΔH−TΔS. Each experiment was repeated at least twice.
(§2) Characterization of binding thermodynamics.

[5] = biological target: T1, C3 purified from fresh human plasma; experiment: ITC; peptide titrated into C3, PBS, 25 C
Procedure: as §1, §2

biotinylated C3b [6] = biological target: biotinylated C3b (UniProt P01024); experiment: SPR on immobilised C3b; ratio relative to peptide 14
[7] = biological target: T1, C3 purified from fresh human plasma; experiment: cell-based or functional assay; remark: listed apart in the source
biotinylated C3b [8] = biological target: biotinylated C3b (UniProt P01024); experiment: SPR, Biacore 3000; biotinylated C3b on streptavidin chip, peptide injected; 1:1 fit

B1: Ac-I[CVYQ(NMe)DWGAHRC]T-NH2 (peptide)
peptide: Ac-ICVYQ[NMeD]WGAHRCT-NH2
modifications: disulfide 2-12
SMILES: CC[C@H](C)[C@H](NC(C)=O)C(=O)N[C@H]1CSSC[C@@H](C(=O)N[C@H](C(N)=O)[C@@H](C)O)NC(=O)[C@H](CCCNC(=N)N)NC(=O)[C@H](Cc2c[nH]cn2)NC(=O)[C@H](C)NC(=O)CNC(=O)[C@H](Cc2c[nH]c3ccccc23)NC(=O)[C@H](CC(=O)O)N(C)C(=O)[C@H](CCC(N)=O)NC(=O)[C@H](Cc2ccc(O)cc2)NC(=O)[C@H](C(C)C)NC1=O
In the case of B1, the “IC50 (CP), inhibition of classical pathway complement activation, ELISA” value (from here on “IC50 (CP), inhibition”) [1] is reported as 44 µM and the “IC50-fold change relative to peptide 1” value [1] is reported as 0.06 fold.

B2: peptide 23 (peptide)
peptide: Ac-ICV[Trp(1-Me)]QDW[Sar]AHRCF-NH2
modifications: disulfide 2-12
SMILES: CC[C@H](C)[C@H](NC(C)=O)C(=O)N[C@H]1CSSC[C@@H](C(=O)N[C@@H](Cc2ccccc2)C(N)=O)NC(=O)[C@H](CCCNC(=N)N)NC(=O)[C@H](Cc2c[nH]cn2)NC(=O)[C@H](C)NC(=O)CN(C)C(=O)[C@H](Cc2c[nH]c3ccccc23)NC(=O)[C@H](CC(=O)O)NC(=O)[C@H](CCC(N)=O)NC(=O)[C@H](Cc2cn(C)c3ccccc23)NC(=O)[C@H](C(C)C)NC1=O
With B2 the “IC50, inhibition of classical pathway complement activation, ELISA” value [2] was 0.257 µM and the “rP, relative potency compared to peptide 14” value [3] was 0.8 fold.

B3: peptide 16 (peptide)
peptide: Ac-ICV[Trp(1-Me)]QDWGAHRCI-NH2
modifications: disulfide 2-12
SMILES: CC[C@H](C)[C@H](NC(=O)[C@@H]1CSSC[C@H](NC(=O)[C@@H](NC(C)=O)[C@@H](C)CC)C(=O)N[C@@H](C(C)C)C(=O)N[C@@H](Cc2cn(C)c3ccccc23)C(=O)N[C@@H](CCC(N)=O)C(=O)N[C@@H](CC(=O)O)C(=O)N[C@@H](Cc2c[nH]c3ccccc23)C(=O)NCC(=O)N[C@@H](C)C(=O)N[C@@H](Cc2c[nH]cn2)C(=O)N[C@@H](CCCNC(=N)N)C(=O)N1)C(N)=O
notes: Peptide 14 scaffold with Gly^8, Ile^13; also called 16 (6)
B3 was tested, and the “-TΔΔS” value [4] was -1.3 kcal/mol, the “rKD ITC” value [4] was 1.2 fold and the ΔΔG [4] was -0.2 kcal/mol. The ΔΔH [4] was 1 kcal/mol, the “-TΔS” value [5] was 5.7 kcal/mol and the ΔG [5] was -10.9 kcal/mol. The ΔH [5] was -16.6 kcal/mol, the rKD SPR (biotinylated C3b [6]) was 1.1 fold and the rka (biotinylated C3b [6]) was 1 fold. It also gave a rkd (biotinylated C3b [6]) of 1 fold.

B4: Ac-I[CVYQDWGAHR(NMe)C]T-NH2 (peptide)
peptide: Ac-ICVYQDWGAHR[NMeC]T-NH2
modifications: disulfide 2-12
SMILES: CC[C@H](C)[C@H](NC(C)=O)C(=O)N[C@H]1CSSC[C@@H](C(=O)N[C@H](C(N)=O)[C@@H](C)O)N(C)C(=O)[C@H](CCCNC(=N)N)NC(=O)[C@H](Cc2c[nH]cn2)NC(=O)[C@H](C)NC(=O)CNC(=O)[C@H](Cc2c[nH]c3ccccc23)NC(=O)[C@H](CC(=O)O)NC(=O)[C@H](CCC(N)=O)NC(=O)[C@H](Cc2ccc(O)cc2)NC(=O)[C@H](C(C)C)NC1=O
For B4, the “IC50 (CP), inhibition” value [1] was 154 µM and the “IC50-fold change relative to peptide 1” value [1] was 0.02 fold.

B5: Ac-I[CVYQDW(NMe)GAHRC]T-NH2 (peptide)
peptide: Ac-ICVYQDW[Sar]AHRCT-NH2
modifications: disulfide 2-12
SMILES: CC[C@H](C)[C@H](NC(C)=O)C(=O)N[C@H]1CSSC[C@@H](C(=O)N[C@H](C(N)=O)[C@@H](C)O)NC(=O)[C@H](CCCNC(=N)N)NC(=O)[C@H](Cc2c[nH]cn2)NC(=O)[C@H](C)NC(=O)CN(C)C(=O)[C@H](Cc2c[nH]c3ccccc23)NC(=O)[C@H](CC(=O)O)NC(=O)[C@H](CCC(N)=O)NC(=O)[C@H](Cc2ccc(O)cc2)NC(=O)[C@H](C(C)C)NC1=O
B5 was tested, and the “IC50 (CP), inhibition” value [1] was 1.43 µM and the “IC50-fold change relative to peptide 1” value [1] was 1.7 fold.

B6: peptide 22 (peptide)
peptide: Ac-ICV[Trp(1-Me)]QDW[Sar]AHRCH-NH2
modifications: disulfide 2-12
SMILES: CC[C@H](C)[C@H](NC(C)=O)C(=O)N[C@H]1CSSC[C@@H](C(=O)N[C@@H](Cc2c[nH]cn2)C(N)=O)NC(=O)[C@H](CCCNC(=N)N)NC(=O)[C@H](Cc2c[nH]cn2)NC(=O)[C@H](C)NC(=O)CN(C)C(=O)[C@H](Cc2c[nH]c3ccccc23)NC(=O)[C@H](CC(=O)O)NC(=O)[C@H](CCC(N)=O)NC(=O)[C@H](Cc2cn(C)c3ccccc23)NC(=O)[C@H](C(C)C)NC1=O
In the case of B6, the “IC50, inhibition of classical pathway complement activation, ELISA” value [2] is reported as 0.16 µM.

B7: Ac-I[CVYQDWGAH(NMe)RC]T-NH2 (peptide)
peptide: Ac-ICVYQDWGAH[NMeR]CT-NH2
modifications: disulfide 2-12
SMILES: CC[C@H](C)[C@H](NC(C)=O)C(=O)N[C@H]1CSSC[C@@H](C(=O)N[C@H](C(N)=O)[C@@H](C)O)NC(=O)[C@H](CCCNC(=N)N)N(C)C(=O)[C@H](Cc2c[nH]cn2)NC(=O)[C@H](C)NC(=O)CNC(=O)[C@H](Cc2c[nH]c3ccccc23)NC(=O)[C@H](CC(=O)O)NC(=O)[C@H](CCC(N)=O)NC(=O)[C@H](Cc2ccc(O)cc2)NC(=O)[C@H](C(C)C)NC1=O
B7 was tested, and the “IC50 (CP), inhibition” value [1] was 32 µM and the “IC50-fold change relative to peptide 1” value [1] was 0.08 fold.

B8: Ac-I[CVY(NMe)QDWGAHRC]T-NH2 (peptide)
peptide: Ac-ICVY[NMeQ]DWGAHRCT-NH2
modifications: disulfide 2-12
SMILES: CC[C@H](C)[C@H](NC(C)=O)C(=O)N[C@H]1CSSC[C@@H](C(=O)N[C@H](C(N)=O)[C@@H](C)O)NC(=O)[C@H](CCCNC(=N)N)NC(=O)[C@H](Cc2c[nH]cn2)NC(=O)[C@H](C)NC(=O)CNC(=O)[C@H](Cc2c[nH]c3ccccc23)NC(=O)[C@H](CC(=O)O)NC(=O)[C@H](CCC(N)=O)N(C)C(=O)[C@H](Cc2ccc(O)cc2)NC(=O)[C@H](C(C)C)NC1=O
With B8 the “IC50 (CP), inhibition” value [1] was 33 µM and the “IC50-fold change relative to peptide 1” value [1] was 0.07 fold.

B9: Ac-I[CVYQDWGA(NMe)HRC]T-NH2 (peptide)
peptide: Ac-ICVYQDWGA[NMeH]RCT-NH2
modifications: disulfide 2-12
SMILES: CC[C@H](C)[C@H](NC(C)=O)C(=O)N[C@H]1CSSC[C@@H](C(=O)N[C@H](C(N)=O)[C@@H](C)O)NC(=O)[C@H](CCCNC(=N)N)NC(=O)[C@H](Cc2c[nH]cn2)N(C)C(=O)[C@H](C)NC(=O)CNC(=O)[C@H](Cc2c[nH]c3ccccc23)NC(=O)[C@H](CC(=O)O)NC(=O)[C@H](CCC(N)=O)NC(=O)[C@H](Cc2ccc(O)cc2)NC(=O)[C@H](C(C)C)NC1=O
B9 was tested, and the “IC50 (CP), inhibition” value [1] was 94 µM and the “IC50-fold change relative to peptide 1” value [1] was 0.03 fold.

B10: Ac-I[CVYQD(NMe)WGAHRC]T-NH2 (peptide)
peptide: Ac-ICVYQD[NMeW]GAHRCT-NH2
modifications: disulfide 2-12
SMILES: CC[C@H](C)[C@H](NC(C)=O)C(=O)N[C@H]1CSSC[C@@H](C(=O)N[C@H](C(N)=O)[C@@H](C)O)NC(=O)[C@H](CCCNC(=N)N)NC(=O)[C@H](Cc2c[nH]cn2)NC(=O)[C@H](C)NC(=O)CNC(=O)[C@H](Cc2c[nH]c3ccccc23)N(C)C(=O)[C@H](CC(=O)O)NC(=O)[C@H](CCC(N)=O)NC(=O)[C@H](Cc2ccc(O)cc2)NC(=O)[C@H](C(C)C)NC1=O
In the case of B10, the “IC50 (CP), inhibition” value [1] is reported as 25 µM and the “IC50-fold change relative to peptide 1” value [1] is reported as 0.1 fold.

B11: Peptide 17-ABP (peptide)
peptide: ICVWQDWGAHRCIK
chain: RLIEDICLPRWGCLWEDD
modifications: propiolic acid on the N-terminus, joined by triazole to the azido-Lys of the peptide 17 chain; N-terminal acetyl; 1-methyl-Trp at 4; N-methyl-Gly (Sar) at 8; disulfide Cys2-Cys12 (cyclic); two mini-PEG-3 spacers between Ile13 and a C-terminal Lys-NH2; 2-azidoacetyl on the Lys side chain, joined by azide-alkyne cycloaddition (triazole) to the ABP
B11 was tested, and the “IC50 (nM, CP), inhibition of classical pathway complement activation, ELISA, human serum” value [7] was 242 nM, the “IC50 fold change relative to peptide 17” value [7] was 0.38 fold and the Kd (biotinylated C3b [8]) was 0.032 µM. The koff (biotinylated C3b [8]) was 0.0036 s⁻¹ and the kon (biotinylated C3b [8]) was 100000 M⁻¹ s⁻¹.

B12: Ac-I[(NMe)CVYQDWGAHRC]T-NH2 (peptide)
peptide: Ac-I[NMeC]VYQDWGAHRCT-NH2
modifications: disulfide 2-12
SMILES: CC[C@H](C)[C@H](NC(C)=O)C(=O)N(C)[C@H]1CSSC[C@@H](C(=O)N[C@H](C(N)=O)[C@@H](C)O)NC(=O)[C@H](CCCNC(=N)N)NC(=O)[C@H](Cc2c[nH]cn2)NC(=O)[C@H](C)NC(=O)CNC(=O)[C@H](Cc2c[nH]c3ccccc23)NC(=O)[C@H](CC(=O)O)NC(=O)[C@H](CCC(N)=O)NC(=O)[C@H](Cc2ccc(O)cc2)NC(=O)[C@H](C(C)C)NC1=O
B12 was tested, and the “IC50 (CP), inhibition” value [1] was 7.5 µM and the “IC50-fold change relative to peptide 1” value [1] was 0.3 fold.

B13: Peptide 17-ABM (peptide)
peptide: ICVWQDWGAHRCIK
modifications: not fully specified; N-terminal acetyl; 1-methyl-Trp at 4; N-methyl-Gly (Sar) at 8; disulfide Cys2-Cys12 (cyclic); two mini-PEG-3 spacers between Ile13 and a C-terminal Lys-NH2; albumin-binding small molecule (ABM) on the Lys side chain
With B13 the “IC50 (nM, CP), inhibition of classical pathway complement activation, ELISA, human serum” value [7] was 137 nM, the “IC50 fold change relative to peptide 17” value [7] was 0.67 fold and the Kd (biotinylated C3b [8]) was 0.0047 µM. The koff (biotinylated C3b [8]) was 0.0056 s⁻¹ and the kon (biotinylated C3b [8]) was 1.2e+06 M⁻¹ s⁻¹.
